Source: paper PMC6509880

Target: apo-CrHydA1 ([4Fe4S]-CrHydA1, Chlamydomonas reinhardtii [FeFe] hydrogenase HydA1 lacking the [2Fe] subsite) (Chlamydomonas reinhardtii)

Substance “[2Fe]^adt-CaHydF (semi-synthetic HydF from Clostridium acetobutylicum loaded with [Fe2(adt)(CO)4(CN)2]^2-) (natural protein)” has an H2 evolution (methyl viologen assay, GC) of 0.04 uM apo-CrHydA1 after 60 min at 37 °C with 0.04-1.2 uM [2Fe]^adt-CaHydF; excess of HydF needed for complete activation of 10 fold excess.
